Reference: the supplement of paper PMC12042874
± gives the uncertainty stated by the source.

Experiment: amyloid nucleation score (Sup35N fusion, yeast selection) (log enrichment); library NNK1; higher = more nucleation; inactive = no reads after selection
Method in brief: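 Peptides of 20 random codons fused to Sup35N were expressed in psi-negative yeast, induced 24 hours with 100 μM copper sulfate, then grown 7 days at 30°C on medium lacking adenine and uracil. Input and output plasmid inserts were Illumina-sequenced. Nucleation score is the DiMSum log enrichment of output over input reads, centred on the mode score of non-aggregating sequences, excluding sequences with under 100 input reads. Random libraries had three technical output replicates.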

Substance	amyloid nucleation score
LFYFTRLFINRYMNM	-0.316 ± 0.5
NGCQSIMR	0.165 ± 0.62
NWSRPSSNLGGGPSSAVREG	0.764 ± 0.52
ECDRCYSYGCVDHKAALG	0.629 ± 0.72
KRTLGTRGRIQVKSCPVGEL	-0.467 ± 0.35
HGINET	0.357 ± 0.48
LYRYEYDCNSLSMS	2.73 ± 0.078
RILWSLYGGSLFPYVSVGWR	0.552 ± 0.56
PLFLQCLWKNSLDLGMKDLS	-0.327 ± 1.4
WNDSYRINSTGCHDCLYRLF	-0.37 ± 0.3
DSVLLRFYDCCEMFYLHSLL	0.48 ± 0.67
NRIVADSESYCTSCLAVCAH	0.177 ± 0.3
RSHQSQGMPSLFNLSLVLFY	6.489 ± 0.064
HVGIDIAVTWLQVKRVAMAS	0.037 ± 0.31
MNKWSG	1.4 ± 0.63
MNKLYITA	0.035 ± 0.84
VLSKFIVSDLMAISQNKLHR	inactive
FVKSKGWVCAGFLYIASL	0.53 ± 0.75
EAGLCSK	-0.316 ± 0.45
IYMYIVNRRVTGSFRF	-0.136 ± 0.23
YWGYKTGQDCFSHSIRRRIL	-0.105 ± 0.85
NKLEYPHNNACATCC	1.09 ± 0.84

Substance	amyloid nucleation score
SCMTPMYRCSILLLA	-0.306 ± 0.42
HDSAELDSRYNSASCVSLWL	-0.213 ± 1.1
CSCINSHLWSTSG	0.386 ± 0.32
YTSSFVKDGKHWSRSKTGVY	-0.569 ± 0.73
ISLDFDNYRVILLKRLVGVM	-0.594 ± 0.33
NNKCWNIVRLVHRSLTLTRH	inactive
KLLSGGVNTWRPTGTSRLEI	-0.053 ± 0.46
GTTFIRLIYFVYMARTTTEF	-1.35 ± 1.1
SVGQRSRAEPDVKLCSGNLG	inactive
LFIYDLQLRHDYHQGYELES	0.544 ± 0.9
IRNIRRI	-0.262 ± 0.28
SDMSPNTGFG	0.073 ± 0.8
GFTGARVSTQHRLRGN	-0.245 ± 0.84
APCQYSFVSVSYSTVNWLMT	8.933 ± 0.071
FPDNVISIIDFR	-0.235 ± 0.54
SRLGLSSDY	0.092 ± 0.33
SITFRRSYTNM	0.411 ± 0.67
YSYVVCYNFYKRV	3.86 ± 0.14
RSFIVCSRNRVGLTNFRCLE	0.364 ± 0.84
FIRVGLVCVLKFRSVGEAWL	-0.045 ± 0.9
RITHWSGKLAFQTIVTISYL	1.53 ± 0.41
AWHTRPQTKTERPLRPVFRA	-0.733 ± 0.69

Substance	amyloid nucleation score
NRLNGNLPLNHR	0.014 ± 0.51
LYVTVGWSLWYGSFAVMVVC	0.026 ± 0.41
HEYDLDKGTS	inactive
EEDII	1.96 ± 0.26
SQCLMKGHCKT	0.286 ± 0.66
MFCRVVRGGCGSSIGC	0.249 ± 0.79
KELCCRASSDLMLRWQVKVF	0.027 ± 1.4
DLCPSGGVSDLCNPYGCFTL	-0.427 ± 0.71
IKMSSRYFMLGTLLSPGLEV	inactive
FLEWAPSLNKLHRF	0.768 ± 0.17
GCLRTWQITLVEYNCMTLRI	0.215 ± 1.2
AWLLLEDWFVNRVILICGAK	0.027 ± 0.27
SFSIGSFSAPLVAERFCCYT	0.163 ± 0.48
ITPGLVAPSPDTKCSACDIL	0.074 ± 0.34
ESHVWELDLGSWSRFGWRSR	2.62 ± 0.11
FLFRRYCAEEGLVWMKIVDT	0.864 ± 0.53
LETRLVYLWENLPLAQTNVA	0.238 ± 0.48
NMVLRPHVMYAWNEPELGNC	-0.22 ± 0.39
DFGLYLNNFCNGMHSFDLFN	-0.378 ± 0.19
SDFVWRCFAMSIRLKRLYRS	-0.68 ± 1.7
YCSTSYRSSHNRSGVWKGTL	1.62 ± 0.55
VNSFCR	0.587 ± 1.1

Substance	amyloid nucleation score
SVGDIFSMWSVCSSVNDRCK	0.415 ± 0.21
FCILFSLIVTVGSLLRFLYR	2.01 ± 0.1
MWVFKTFCRRQRASVPNSLG	0.034 ± 0.27
CQFYWLTGPCMRRLRCGSVQ	0.052 ± 0.36
CFFFPPEYTKRLKSSSMVRR	-0.652 ± 0.9
VFLKCFRYTFNNHINFFCVG	5.96 ± 0.064
GFGQAGGPSGESY	0.722 ± 0.75
LRVSYWQDLAVLYLDSPLGL	-0.358 ± 0.87
NKGKIESMCSSAH	4.7 ± 0.099
DCFLCLKVLGMSAVLREWYL	-1.17 ± 0.94
IILFNRILLV	inactive
CRMRMLRKYVFLD	-0.427 ± 0.61
VLAPFVLPC	-0.406 ± 0.41
SITRKRVRRDAGGMVCGLVS	inactive
KYFYMMTAYRRWRRDPYLGG	-0.54 ± 0.62
AIVVKNDFTGSPRF	inactive
LEQFMTRYRSDIVYCCDSGS	inactive
RYWFLSYFHPANNYDDWKNC	-1.03 ± 1.2
TFEALLTVDSYYSFSLVP	1.21 ± 0.4
